Biological target: VirB4-like TraB ATPase of the pKM101-encoded type IV secretion system (plasmid pKM101 (carried in E. coli))
Test: cryo-EM structure; in situ cryo-electron tomography with subtomogram averaging of T4SS(pKM101) machines in E. coli UU2834 minicells; 6-fold symmetry seen in class averages and then imposed for the IMC; wild type compared with ΔtraB mutant machines

- stoichiometry N: 12
Substance: VirB4-like TraB ATPase of the pKM101-encoded type IV secretion system (enzyme)
